The values that follow come from the supplement of paper PMC10567573.

Sequences and labels used below:
B1: SLC6A17 (parent)
chain: KAVEEELDAEDRPAWNSKLQYILA
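Further: lentivirally expressed fusions sorted by FACS into six bins by GFP to DsRed ratio, PSI derived from sequencing read proportions per bin multiplied by bin number.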

Variants of B1 are the subject of this series. Put plainly: protein stability index of a GFP-peptide fusion (GPS, HEK-293T) (PSI 1-6); higher = more stable. To be noted: c terminus: a fixed tail appended.
Consider KAVEEELDAEDRPAWNSKLQYIAA [L23A], for which the protein stability index amounted to 3.9.
For KAVEEELDAEDRPAWNSKLQYIFA [L23F], the protein stability index is 3.03.
Take KAVEEELDAEDRPAWNSKLQYIGA [L23G]: the protein stability index was found to be 3.99.
Next, KAVEEELDAEDRPAWNSILQYILA [K18I]: 2.13; KAVEEELDAEDRPAWNSFLQYILA [K18F]: 2.17; KAVEEELDAEDRPAWNSLLQYILA [K18L]: 1.98.
Take KAVEEELDAEDRPAWNSRLQYILA [K18R]: the protein stability index came to 2.69.
As to KAVEEELDAEDRPAWNSSLQYILA [K18S], the protein stability index came to 3.07.
To KAVEEELDLEDRPAWNSKLQYILA [A9L] belongs 2.33; to KAVEEELDCEDRPAWNSKLQYILA [A9C], 2.65; to KAVEEELDKEDRPAWNSKLQYILA [A9K], 3.15.
For the variant KAVEEELDIEDRPAWNSKLQYILA [A9I], the protein stability index turned out to be 2.02.
Regarding KAVEEELDMEDRPAWNSKLQYILA [A9M], the protein stability index came to 1.73.
To KAVEEELDPEDRPAWNSKLQYILA [A9P] belongs 2.54; to KAVEEELDGEDRPAWNSKLQYILA [A9G], 2.24.
Next, KAVEEELDAEDPPAWNSKLQYILA [R12P]: 2.44; KAVEEELDAEDQPAWNSKLQYILA [R12Q]: 3.15.
Next, KAVEEELDAEDSPAWNSKLQYILA [R12S]: 3.4; TAVEEELDAEDRPAWNSKLQYILA [K1T]: 2.39.
As for NAVEEELDAEDRPAWNSKLQYILA [K1N], the protein stability index amounted to 3.17.
For YAVEEELDAEDRPAWNSKLQYILA [K1Y], the protein stability index was 2.05.
As for KAVEEELDAEDRHAWNSKLQYILA [P13H], the protein stability index worked out at 2.21.
With KAVEEELDAEDRSAWNSKLQYILA [P13S], the protein stability index turned out to be 2.27.
KAVEEELDAEDRGAWNSKLQYILA [P13G]: the protein stability index was found to be 2.71.
To KAVEEELDAEDRTAWNSKLQYILA [P13T] belongs 3.06; to KAVEEELDAEDRCAWNSKLQYILA [P13C], 2.28.
With KAVEEELDAEDRRAWNSKLQYILA [P13R], the protein stability index turned out to be 2.44.
As for KAVEEELDAEDRPAWNSKLQYILK [A24K], the protein stability index was 3.08.
As to KAVEEELDAEDRPAWNSKLQYILW [A24W], the protein stability index amounted to 2.06.
As for KAVEEELDAEDRPAWNSKLQYILP [A24P], the protein stability index was 3.25.
For the variant KAVEEELDAEDRPRWNSKLQYILA [A14R], the protein stability index was found to be 2.3.
Take KAVEEELDAEDRPTWNSKLQYILA [A14T]: the protein stability index turned out to be 3.2.
In the case of KAVEEELDAEDRPYWNSKLQYILA [A14Y], the protein stability index turned out to be 2.
Take KAVEEELDAEDRPAWNSKQQYILA [L19Q]: the protein stability index was 3.92.
Next, KAVEEELDAEDRPAWNSKFQYILA [L19F]: 2.96; KAVEEELDAEDRPAWNSKYQYILA [L19Y]: 2.52; KAQEEELDAEDRPAWNSKLQYILA [V3Q]: 2.91.
As to KANEEELDAEDRPAWNSKLQYILA [V3N], the protein stability index worked out at 3.07.
Next, KAFEEELDAEDRPAWNSKLQYILA [V3F]: 2.29; KAVEEELSAEDRPAWNSKLQYILA [D8S]: 3.15.
Take KAVEEELFAEDRPAWNSKLQYILA [D8F]: the protein stability index is 2.19.
As to KAVEEELTAEDRPAWNSKLQYILA [D8T], the protein stability index worked out at 2.57.
Next, KAVEEELYAEDRPAWNSKLQYILA [D8Y]: 2.08.
To KAVEEELDAEDRPAWNSKLEYILA [Q20E] belongs 2.89.
As to KAVEEELDAEDRPAWNSKLPYILA [Q20P], the protein stability index turned out to be 3.25.
On to KAVEEELDAEDRPAWNSKLIYILA [Q20I], for which the protein stability index is 1.57.
Consider KAVEEELDAEDRPAWNSKLTYILA [Q20T], for which the protein stability index was 2.25.
For KAVEEELDAEDRPAWNSKLGYILA [Q20G], the protein stability index was 2.32.
Take KAVEEELDAEDRPAWSSKLQYILA [N16S]: the protein stability index turned out to be 3.01.
On to KAVEEELDAEDRPAWPSKLQYILA [N16P], for which the protein stability index is 2.75.
With KAVEEELDAEDRPAWKSKLQYILA [N16K], the protein stability index was found to be 2.52.
Regarding KAVEERLDAEDRPAWNSKLQYILA [E6R], the protein stability index came to 2.79.
To KAVEEHLDAEDRPAWNSKLQYILA [E6H] belongs 2.55; to KAVEEQLDAEDRPAWNSKLQYILA [E6Q], 2.68.
On to KAVEEKLDAEDRPAWNSKLQYILA [E6K], for which the protein stability index came to 2.7.
To KAVEEGLDAEDRPAWNSKLQYILA [E6G] belongs 2.27; to KAVEEELDAEDRPAWNLKLQYILA [S17L], 1.99.
In the case of KAVEEELDAEDRPAWNPKLQYILA [S17P], the protein stability index turned out to be 2.97.
Next, KAVWEELDAEDRPAWNSKLQYILA [E4W]: 1.4.
With KAVMEELDAEDRPAWNSKLQYILA [E4M], the protein stability index was 1.78.
To KAVNEELDAEDRPAWNSKLQYILA [E4N] belongs 2.63; to KAVAEELDAEDRPAWNSKLQYILA [E4A], 2.79; to KAVEEELDAEDRPAYNSKLQYILA [W15Y], 2.77.
To KAVEEELDAEDRPAVNSKLQYILA [W15V] belongs 2.2; to KAVEEELDAEDRPASNSKLQYILA [W15S], 3.92; to KAVEEELDAEDRPAINSKLQYILA [W15I], 3.69.
As for KAVEEELDAEDRPAPNSKLQYILA [W15P], the protein stability index stood at 3.68.
With KAVEKELDAEDRPAWNSKLQYILA [E5K], the protein stability index was 2.08.
In the case of KAVEDELDAEDRPAWNSKLQYILA [E5D], the protein stability index is 1.75.
On to KAVEVELDAEDRPAWNSKLQYILA [E5V], for which the protein stability index worked out at 2.9.
Regarding KAVEMELDAEDRPAWNSKLQYILA [E5M], the protein stability index was 2.05.
On to KAVEQELDAEDRPAWNSKLQYILA [E5Q], for which the protein stability index worked out at 1.96.
In the case of KAVEEELDAEDRPAWNSKLQFILA [Y21F], the protein stability index came to 2.9.
On to KAVEEELDAEDRPAWNSKLQCILA [Y21C], for which the protein stability index is 4.37.
In the case of KAVEEELDAEDRPAWNSKLQYMLA [I22M], the protein stability index was determined as 1.79.
As to KAVEEELDAEDRPAWNSKLQYHLA [I22H], the protein stability index was 4.5.
In the case of KAVEEELDAEDRPAWNSKLQYWLA [I22W], the protein stability index came out at 2.9.
KAVEEELDARDRPAWNSKLQYILA [E10R]: the protein stability index is 2.83.
In the case of KAVEEELDANDRPAWNSKLQYILA [E10N], the protein stability index worked out at 2.57.
In the case of KAVEEELDAPDRPAWNSKLQYILA [E10P], the protein stability index was 2.28.
Turning to KAVEEELDAVDRPAWNSKLQYILA [E10V], the protein stability index came to 1.9.
In the case of KAVEEELDADDRPAWNSKLQYILA [E10D], the protein stability index turned out to be 2.52.
Consider KAVEEELDATDRPAWNSKLQYILA [E10T], for which the protein stability index is 2.44.
For KEVEEELDAEDRPAWNSKLQYILA [A2E], the protein stability index worked out at 1.96.
For the variant KQVEEELDAEDRPAWNSKLQYILA [A2Q], the protein stability index was found to be 3.
To KPVEEELDAEDRPAWNSKLQYILA [A2P] belongs 2.68.
For the variant KMVEEELDAEDRPAWNSKLQYILA [A2M], the protein stability index stood at 2.43.
To KDVEEELDAEDRPAWNSKLQYILA [A2D] belongs 2.65; to KIVEEELDAEDRPAWNSKLQYILA [A2I], 2.19; to KAVEEECDAEDRPAWNSKLQYILA [L7C], 3.5.
In the case of KAVEEEADAEDRPAWNSKLQYILA [L7A], the protein stability index amounted to 3.74.
For the variant KAVEEEQDAEDRPAWNSKLQYILA [L7Q], the protein stability index was 2.53.
On to KAVEEEYDAEDRPAWNSKLQYILA [L7Y], for which the protein stability index stood at 2.51.
In the case of KAVEEELDAEVRPAWNSKLQYILA [D11V], the protein stability index came out at 2.
